Numbering of substitutions follows the chain as printed. Names may count otherwise.
Experiments:
[1] = target: T1, human FcγRIIb extracellular domain, C-terminal His-tag (human, UniProt P31994 43-217); experiment: SPR (Biacore); KD of SG1 / KD of variant;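 also: relative to parent M103205H795-SG1 carrying the SG1 human heavy chain constant region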
T1 construct: also called human FcgRIIb; FcgRIIb
T1 sequence: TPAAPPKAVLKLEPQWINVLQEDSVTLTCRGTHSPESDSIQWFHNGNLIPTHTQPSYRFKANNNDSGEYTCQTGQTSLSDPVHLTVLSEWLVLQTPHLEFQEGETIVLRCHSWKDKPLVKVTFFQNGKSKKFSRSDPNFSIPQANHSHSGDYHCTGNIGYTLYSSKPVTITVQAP
Method: (§1) The kinetic analysis of interactions between these antibodies and FcγR was carried out using BIACORE® T200 or BIACORE® 4000 (GE Healthcare). HBS-EP+ (GE Healthcare) was used as the running buffer, and the measurement temperature was set to 25° C. A chip produced by immobilizing Protein A. Protein A/G or mouse anti-human IgG kappa light chain (BD Biosciences) onto a Series S Sensor Chip CM4 or CM5 (GE Healthcare) by the amine-coupling method was used. […] After the measurement, the antibody captured on the chip was washed off by allowing reaction with 10 mM glycine-HCl, pH1.5 and 25 mM NaOH so that the chip was regenerated and used repeatedly. The sensorgrams obtained as measurement results were analyzed by the 1:1 Langmuir binding model using the BIACORE® Evaluation Software to calculate the binding rate constant ka (L/mol/s) and dissociation rate constant kd (l/s), and the dissociation constant KD (mol/L) was calculated from these values. […] Regarding such interactions, KD values were calculated using the following 1:1 binding model described in BIACORE® T100 Software Handbook BR1006-48 Edition AE.
(§2) The behavior of interacting molecules according to the 1:1 binding model on BIACORE® can be described by Equation 1: Req=C·R max/(KD+C)+RI, wherein, Req is a plot of steady-state binding levels to analyte concentration. C is concentration, RI is bulk refractive index contribution in the sample, and Rmax is analyte binding capacity of the surface. When this equation is rearranged, KD can be expressed as Equation 2: KD=C·Rmax/(Req−RI)−C. KD can be calculated by substituting the values of Rmax, RI, and C into Equation 1 or Equation 2. From the current measurement conditions, RI=0, C=2 μmol/L can be used.

[2] = target: T2, human FcγRIIaR extracellular domain, C-terminal His-tag (human, UniProt P12318 34-217); experiment: SPR (Biacore); KD of SG1 / KD of variant;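 also: relative to parent M103205H795-SG1 carrying the SG1 human heavy chain constant region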
T2 construct: also called human FcγRIIa (type R); FcgRIIaR
T2 chain: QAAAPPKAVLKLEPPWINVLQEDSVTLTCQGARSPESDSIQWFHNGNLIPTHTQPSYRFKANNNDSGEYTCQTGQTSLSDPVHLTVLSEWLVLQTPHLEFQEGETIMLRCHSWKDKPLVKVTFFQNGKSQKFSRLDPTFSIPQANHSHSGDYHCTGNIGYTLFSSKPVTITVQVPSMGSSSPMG
Method: as §1, §2

[3] = target: T3, cynomolgus monkey FcγRIIb extracellular domain, C-terminal His-tag (cynomolgus monkey); experiment: SPR (Biacore); KD of SG1 / KD of variant;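 also: relative to parent M103205H795-SG1 carrying the SG1 human heavy chain constant region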
T3 construct: also called cyno FcγRIIb; cynoFcγRIIb
T3 chain: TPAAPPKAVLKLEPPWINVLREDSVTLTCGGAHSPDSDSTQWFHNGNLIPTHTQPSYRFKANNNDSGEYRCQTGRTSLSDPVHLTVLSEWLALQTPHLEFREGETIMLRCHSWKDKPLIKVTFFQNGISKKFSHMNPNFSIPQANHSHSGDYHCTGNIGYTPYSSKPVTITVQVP
Method: as §1, §2

[4] = target: T4, cynomolgus monkey FcγRIIa1 extracellular domain, C-terminal His-tag (cynomolgus monkey); experiment: SPR (Biacore); KD of SG1 / KD of variant;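 also: relative to parent M103205H795-SG1 carrying the SG1 human heavy chain constant region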
T4 construct: also called cyno FcγRIIa1; cynoFcgRIIa1
T4 chain: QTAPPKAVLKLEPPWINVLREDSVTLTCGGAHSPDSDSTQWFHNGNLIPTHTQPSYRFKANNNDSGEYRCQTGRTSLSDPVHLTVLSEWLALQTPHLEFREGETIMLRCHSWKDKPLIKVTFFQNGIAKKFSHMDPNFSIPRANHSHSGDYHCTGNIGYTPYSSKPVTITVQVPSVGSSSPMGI
Method: as §1, §2

[5] = target: T5, cynomolgus monkey FcγRIIa2 extracellular domain, C-terminal His-tag (cynomolgus monkey); experiment: SPR (Biacore); KD of SG1 / KD of variant
T5 construct: also called cyno FcγRIIa2; cynoFcgRIIa2
T5 chain: T4 chain with P95T, T121A, I127K, A128S, K130N, D135N, R142Q
Method: as §1, §2

[6] = target: T6, cynomolgus monkey FcγRIIIaS extracellular domain, C-terminal His-tag (cynomolgus monkey, UniProt Q8SPW2 21-206 at identity 1.00)); experiment: SPR (Biacore); KD of SG1 / KD of variant
T6 construct: also called cyno FcγRIIIaS; cynoFcγRIIIaS
T6 chain: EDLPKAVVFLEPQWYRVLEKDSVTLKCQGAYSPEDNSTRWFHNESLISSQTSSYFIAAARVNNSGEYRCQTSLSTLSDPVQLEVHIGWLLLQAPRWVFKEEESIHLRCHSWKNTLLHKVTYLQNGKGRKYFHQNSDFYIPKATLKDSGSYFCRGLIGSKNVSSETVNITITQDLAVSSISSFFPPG
Method: as §1, §2

[7] = target: T7, cynomolgus monkey FcγRIIa3 extracellular domain, C-terminal His-tag (cynomolgus monkey); experiment: SPR (Biacore); KD of SG1 / KD of variant
T7 construct: also called cyno FcγRIIa3; cynoFcgRIIa3
T7 chain: T4 chain with P95T, T121A, A128S, H133P, D135N
Method: as §1, §2

[8] = target: T1, human FcγRIIb extracellular domain, …; experiment: SPR (Biacore), antibody captured, FcgR analyte
[9] = target: T2, human FcγRIIaR extracellular domain, …; experiment: SPR (Biacore), antibody captured, FcgR analyte
[10] = target: T3, cynomolgus monkey FcγRIIb extracellular …; experiment: SPR (Biacore), antibody captured, FcgR analyte
[11] = target: T4, cynomolgus monkey FcγRIIa1 …; experiment: SPR (Biacore), antibody captured, FcgR analyte
[12] = target: T5, cynomolgus monkey FcγRIIa2 …; experiment: SPR (Biacore), antibody captured, FcgR analyte
[13] = target: T6, cynomolgus monkey FcγRIIIaS …; experiment: SPR (Biacore), antibody captured, FcgR analyte
[14] = target: T8, human FcγRIIaH extracellular domain, C-terminal His-tag (human, UniProt P12318 34-217); experiment: SPR (Biacore), antibody captured, FcgR analyte
T8 construct: also called human FcγRIIa (type H); FcgRIIaH
T8 sequence: T2 chain with R134H

[15] = target: T7, cynomolgus monkey FcγRIIa3 …; experiment: SPR (Biacore), antibody captured, FcgR analyte
[16] = target: T9, human FcγRIIIaV extracellular domain, C-terminal His-tag (human, UniProt P08637 17-208); experiment: SPR (Biacore), antibody captured, FcgR analyte
T9 construct: also called human FcgRIIIaV; FcgRIIIaV
T9 sequence (P08637 17-208 F176V): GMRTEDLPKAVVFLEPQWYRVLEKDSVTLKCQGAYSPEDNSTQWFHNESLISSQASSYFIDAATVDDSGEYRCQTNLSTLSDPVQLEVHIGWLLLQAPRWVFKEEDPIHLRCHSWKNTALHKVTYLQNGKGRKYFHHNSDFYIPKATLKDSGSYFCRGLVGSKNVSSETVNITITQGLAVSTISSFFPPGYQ

[17] = target: T10, human FcγRIIb extracellular domain with C-terminal His-tag (human, UniProt P31994 43-217); experiment: SPR (Biacore); KD of SG1 divided by KD of the variant for this FcgR
T10 construct: Expressed in FreeStyle 293 cells and purified; also called humanFcgRIIb; not shown: C-terminal His-tag
T10 sequence: T1 sequence

[18] = target: T11, human FcγRIIaH extracellular domain with C-terminal His-tag (human, UniProt P12318 34-217); experiment: as above
T11 construct: Expressed in FreeStyle 293 cells and purified; also called human FcγRIIa (type H); FcgRIIaH; not shown: C-terminal His-tag
T11 sequence: T2 chain with R134H

[19] = target: T12, human FcγRIIaR extracellular domain with C-terminal His-tag (human, UniProt P12318 34-217); experiment: as above
T12 construct: Expressed in FreeStyle 293 cells and purified; also called human FcγRIIa (type R); FcgRIIaR; not shown: C-terminal His-tag
T12 chain: T2 chain

[20] = target: T13, cynomolgus monkey FcγRIIa2 extracellular domain with C-terminal His-tag (cynomolgus monkey); experiment: as above
T13 construct: Expressed in FreeStyle 293 cells and purified; also called cyno FcγRIIa2; cynoFcgRIIa2; not shown: C-terminal His-tag
T13 chain: T4 chain with P95T, T121A, I127K, A128S, K130N, D135N, R142Q

[21] = target: T14, cynomolgus monkey FcγRIIIaS extracellular domain with C-terminal His-tag (cynomolgus monkey, UniProt Q8SPW2 21-206 at identity 1.00)); experiment: as above
T14 construct: Expressed in FreeStyle 293 cells and purified; also called cyno FcγRIIIaS; cynoFcγRIIIaS; not shown: C-terminal His-tag
T14 chain: T6 chain

[22] = target: T15, cynomolgus monkey FcγRIIa3 extracellular domain with C-terminal His-tag (cynomolgus monkey); experiment: as above
T15 construct: Expressed in FreeStyle 293 cells and purified; also called cyno FcγRIIa3; cynoFcgRIIa3; not shown: C-terminal His-tag
T15 chain: T4 chain with P95T, T121A, A128S, H133P, D135N

[23] = target: T16, human FcγRIIIaV extracellular domain with C-terminal His-tag (human, UniProt P08637 17-208); experiment: as above
T16 construct: Expressed in FreeStyle 293 cells and purified; also called FcgRIIIaV; not shown: C-terminal His-tag
T16 sequence (P08637 17-208 F176V): as above

[24] = target: T17, cynomolgus monkey FcγRIIa1 extracellular domain with C-terminal His-tag (cynomolgus monkey); experiment: as above
T17 construct: Expressed in FreeStyle 293 cells and purified; also called cyno FcγRIIa1; cynoFcgRIIa1; not shown: C-terminal His-tag
T17 chain: T4 chain

[25] = target: T18, cynomolgus monkey FcγRIIb extracellular domain with C-terminal His-tag (cynomolgus monkey); experiment: as above
T18 construct: Expressed in FreeStyle 293 cells and purified; also called cyno FcγRIIb; cynoFcγRIIb; not shown: C-terminal His-tag
T18 chain: T3 chain

B1: M103205H795-MY144/M103202L889-SK1 (antibody, human IgG1, kappa)
heavy: QVTLKESGPVLVKPTETLTLTCTVSGIDLSHDDISWVRQAPGKGLEWVGIISYAGSTYYASWAKGRLTISKDTSKNQVVLTMTNMDPVDTATYYCARGVPAYSHGGDLWGQGTLVTVSSASTKGPSVFPLAPSSKSTSGGTAALGCLVKDYFPEPVTVSWNSGALTSGVHTFPAVLQSSGLYSLSSVVTVPSSSLGTQTYICNVNHKPSNTKVDKKVEPKSCDKTHTCPPCPAPELLNGPSVFLFPPKPKDTLMISRTPEVTCVVVDVSDEDPEVKFNWYVDGVEVHNAKTKPREEQYNSTYRVVSVLTVLHQDWLNGKEYKCKVSNKALPAPIEKTISKAKGQPREPQVYTLPPSREEMTKNQVSLTCLVKGFYPSDIAVEWESNGQPENNYKTTPMVLDSDGSFFLYSKLTVDKSRWQQGNVFSCSVMHEALHNHYTQKSLSLSP
light: DIVMTQSPATLSLSPGERATLSCTSSQSVYHANWLSWFQQKPGQPPKLLIYWASTLAYGVPSRFSGSGSGTDFTLTISSLQPEDAATYYCAGGYGGGRYAFGQGTKVEIKRTVAAPSVFIFPPSDEQLKSGTASVVCLLNNFYPREAKVQWKVDNALQSGNSQESVTEQDSKDSTYSLSSTLTLSKADYEKHKVYACEVTHQGLSSPVTKSFNRGEC
notes: P369M is read as a misprint of P396M
[1]
  KD fold (SG1 = 1): 6.2 fold
[2]
  KD fold (SG1 = 1): 0.8 fold
[3]
  KD fold (SG1 = 1): 4.1 fold
[4]
  KD fold (SG1 = 1): 3.6 fold
[5]
  KD fold (SG1 = 1): 5.7 fold
[6]
  KD fold (SG1 = 1): 0.16 fold
[7]
  KD fold (SG1 = 1): 4.5 fold
[8]
  Kd: 740 nM
[9]
  Kd: 13000 nM
[10]
  Kd: 440 nM
[11]
  Kd: 890 nM
[12]
  Kd: 820 nM
[13]
  Kd: 2300 nM
[14]
  Kd: 650 nM
[15]
  Kd: 3800 nM
[16]
  Kd: 7700 nM

B2: M103205H795-MY538 (Table 19; L235W/G236N/H268D/Q295L/K326T/A330K) / M103202L889-SK1 (antibody, human IgG1, kappa)
heavy: B1 heavy with L237W, Q297L, K328T, A332K, M398P
light: B1 light
notes: Fc variant of M103205H795-SG1, expressed with M103202L889-SK1; the text names MY518 for this set of substitutions; also called probably MY518 of the text
[17]
  KD fold (SG1 = 1): 9.6 fold
[18]
  KD fold (SG1 = 1): 0.8 fold
[19]
  KD fold (SG1 = 1): 1.6 fold
[20]
  KD fold (SG1 = 1): 5.7 fold
[21]
  KD fold (SG1 = 1): 0.09 fold
[22]
  KD fold (SG1 = 1): 7.1 fold
[23]
  KD fold (SG1 = 1): 0.04 fold
[24]
  KD fold (SG1 = 1): 3.6 fold
[25]
  KD fold (SG1 = 1): 6.9 fold

Reference: patent US20200317768A1 (published 2020)
